# According to the supplement of paper PMC12764529:
# ± gives the half width of the 95% confidence interval.
# Test: folding stability dG unfold from chymotrypsin proteolysis; higher = more stable
# Outline: (§1)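 Designed mini-proteins (under 80 residues, no cysteine) in a PA-tagged cDNA display construct were digested with trypsin and chymotrypsin. Each protease was used at 11 concentrations (threefold dilutions) plus a no-protease condition, followed by sequencing. K50 was inferred by Bayesian fitting of sequencing counts, and unfolding free energy was derived against a sequence-predicted unfolded-state K50 and a shared folded-state K50, per protease or combined. Only designs with AlphaFold2 dimer inter-PAE above 15 were kept.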
row,Sequence,folding stability dG unfold
1,SAGGMPYTLVGEKTESLGEGNTVVTKTYKPPDGTYTVETTTITTDPENGSTSTTSTTTTIPPNTPEALSAGG [r19_173_JUSTAS],0.334 ± 0.25 kcal/mol
2,SAGGSAKIEEIASLPAEEIAEAFGLTVISATVERFEDGTVVLTVEIAPPLGPPIRVTFVFGVDPEKSAGGSA [r15_805_TrMRF],4.19 ± 0.061 kcal/mol
3,SAGGSAGGSAMRLRLKVKPGEKVRIRVERDGKVYEFEVTVEEGADEIEIDLPPGVKRIEIEPSAGGSAGGSA [r18_124_TrROS_Hall],3.8 ± 0.095 kcal/mol
4,SAGGSAGGKKKKKPPKKKYFYVEIEIELTPEEIEKLKELFPDVKVEVEEKDGKLRVRITVRVKLSAGGSAGG [r6_685_TrROS_Hall],3.48 ± 0.05 kcal/mol
5,SAGGKIKIQFNGQEFTITEFEIIEPQPNKGGGPYYRIRIKFPNGPMEIMIPPNMPPEIKPGDTFTIASAGGS [r16_638_TrROS],1.96 ± 0.032 kcal/mol
6,MRITLELEDGTRVEIEFERKEDGTLVVRIKVTRKDGKTVEIEVVVRSKDGKITPEELERALREALEELLKKS [r1_124_TrROS_Hall],4.06 ± 0.33 kcal/mol
7,SMKIPGMSAKEKLRKAIEALLEEAEKKGIKEITIKIYNKKTKKPIKEIKFKSKEELLKKIEEGDEVEIEFSA [r9_718_TrROS_Hall],1.71 ± 0.061 kcal/mol
8,SAGGSAGGSAGGSKEIKVEVEEKDGKLTVTVTFPDGSKVEIEGMSAEEVEKLVKELAKKSAGGSAGGSAGGS [r4_383_TrROS_Hall],2.36 ± 0.1 kcal/mol
9,SAGGSAGGSAGDGMIEVKVEFERLFFDENGNVTKKEKVDEIIKVPPVTIDTSTGKLTPLPSAGGSAGGSAGG [r17_413_JUSTAS],0.229 ± 0.021 kcal/mol
10,SAGGSAGGSSVIEVTFSDGSKALFFPGSQKVVVYNPSTKKKIVIPPGVSPETALKAIAEGKPISAGGSAGGS [r12_832_TrMRF],0.185 ± 0.073 kcal/mol
11,SAGGSVEVTKTESKGPGGTVTVEALKTVTKFDEKGNPVKEEEVRITRTETYDPNTGKVTTTTTVEGSAGGSA [r2_220_JUSTAS],0.709 ± 0.018 kcal/mol

# Test: folding stability dG unfold (combined trypsin and chymotrypsin); higher = more stable
# Outline: as §1
row,Sequence,folding stability dG unfold
1,SAGGSAGGKTIEITIKLEDGKELKIKIDSPEELDKITSVELIGPGKIKITVNGKTIEITIKPKPSAGGSAGG [r6_206_TrROS_Hall],3.2 ± 0.16 kcal/mol
2,SAGGSAGGSAGPVPKTITVTVSSPEEAEAAVKEIKPKYPNVKVERKKVGDKIVLTITVEESAGGSAGGSAGG [r17_319_JUSTAS],1.75 ± 0.16 kcal/mol
3,SAGKITITVEKNEDGELTVTIRIEKDGKPIEEITFESEEEALEAAKKLAEELKKKYPDLKIEVEIVPRPSAG [r5_383_TrROS_Hall],3.53 ± 0.64 kcal/mol
4,SAGGSAGGSASLSPEKKVTIKTTVPQPTPPAVTTTLTGQFPSSLTLEELAEKDPNATVSITGSAGGSAGGSA [r18_279_JUSTAS],1.04 ± 0.055 kcal/mol
5,SAGGSAGGGDLVVYRLEVRRFEPGTGRLVETRSRTVVVPKEDLPELLERIPPGYEVLRIEAFPESAGGSAGG [r6_776_TrMRF],0.494 ± 0.11 kcal/mol
6,SVVLDVPYENRPDLLATIRALVAEKAPPVVVFVEAPEAERARLRRELEALGFTVEPTPVPNRYRITFRPASA [r9_600_TrMRF],3.15 ± 0.067 kcal/mol
7,SAGGSAGGSKIEITVKTKEELLEAIRKLAEEKGYEIVSIKIEKLPDGTYKVTIEIRKNDPLLKSAGGSAGGS [r12_647_TrROS_Hall],2.38 ± 0.12 kcal/mol
8,SAMEINIVLVAPPESPEALELAKEVAELVAKEIEEEGIPVEVEVEKIEFFRLPDGSIVVLIPIKVKPPESAG [r14_48_TrMRF],2.63 ± 0.19 kcal/mol
9,SAGGSAGGSAGEPEYVRVRIRVRRRVRNKETGKWEEKEVELTLVFPSKEEALKALEELGLSAGGSAGGSAGG [r11_984_TrROS_Hall],4.02 ± 0.051 kcal/mol
10,SAGGSAGGSAGGMPIPVTITVSDPATGTTKVVKTVLVTSPEKLEEVISKLPEGKKYTVVESAGGSAGGSAGG [r7_307_JUSTAS],-0.393 ± 0.29 kcal/mol
11,SAGKSIKILITTEKEEEAKKLAEEIKKELPKLGYKVEVYIMPKEEFEKFLKEFVVPEPDGKLVKVDLSSAGG [r19_187_TrMRF],1.48 ± 0.19 kcal/mol
12,SAGGTVTLTLELTVKVKRKDGKTETKKVTLTITVEVKEGETVYTPDGKKIKPGKSAEELAKELLKKLSAGGS [r16_440_TrROS_Hall],1.27 ± 0.32 kcal/mol
13,SASPRTITVPVTRFPDGTVRFTIETPDKTITLTFPPSATFEEALEKLSPDPDKKITLVEKDPTTVTVAESAG [r14_404_JUSTAS],0.873 ± 0.13 kcal/mol
14,SAGGSAGGSAGKKTVVIKDAEIVEVEEENGYLKVRIKVTNPDGSEEEFTFTFKPGDVIELSAGGSAGGSAGG [r11_211_TrROS_Hall],2.71 ± 0.17 kcal/mol
15,SAGGKNVKKYVPIEIEIEAPSPEVAEATAEEIEKIIREKFPGAKVEVEMEPLPDGGYKLKVKVYVPVGSAGG [r13_17_TrMRF],3.11 ± 0.07 kcal/mol
16,SAGGSASPVLTTVTFPGSPEELEAYAAEVRAAGTLLSVSFSPSPDPSYYTITLQVRAPDGTYFTAESAGGSA [r15_177_JUSTAS],1.39 ± 0.061 kcal/mol
17,SAGPFILVKFVTPDGRPLYYVIEIPESEEPEKLTLEQALEVAEAIAKALASKGGFEVKEVKIVSPEEFSAGG [r19_27_TrMRF],3.66 ± 0.057 kcal/mol
18,SKKVEIKIKVERNEDGYLTVTIEIRAETEEELLEAAKELAKALFPEDVEIRVEKLPDGTVKITIVVKLPPSA [r9_646_TrROS_Hall],2.29 ± 0.14 kcal/mol
19,SKGKKTVTINFMLKVEDPEDLPPGQEVKIPPEFIDFLRDQGFKITEIKIRVVPPPDGDVYVMFSSTIEVDSA [r9_465_TrROS],2.88 ± 0.34 kcal/mol
20,SAGGSAGGSAGGSPNPLLPPVRPKVILKDPKTGTTKTFTTEEEAKKAVESGEYTVLKIESAGGSAGGSAGGS [r10_520_JUSTAS],0.217 ± 0.058 kcal/mol
